# Experimental data: the supplement of paper PMC10065799, “High-throughput profiling of sequence recognition by tyrosine kinases and SH2 domains using bacterial peptide display” (eLife, 2023)
# Legend:
# c-Src SH2 = assay: SH2 binding enrichment of the phosphorylated peptide, bacterial display (enrichment ratio); higher = better substrate or ligand; peptides without Tyr show the background
# SHP2-C SH2 = assay: as above
# Grb2 SH2 = Grb2 SH2 (UniProt P62993); assay: as above
# EPHB1 = EPHB1 (UniProt P54762); assay: phosphorylation enrichment, bacterial display (enrichment ratio); higher = better substrate or ligand; peptides without Tyr show the background
# FGFR1 = FGFR1 (UniProt P11362); assay: as above
# Fer (mouse) = assay: as above
# FGFR3 = FGFR3 (UniProt P22607); assay: as above
# Fes = Fes (UniProt P07332); assay: as above
# Hck = Hck (UniProt P08631); assay: as above
# EPHB2 = EPHB2 (UniProt P29323); assay: as above
# c-Src = assay: as above
# Jak2 = Jak2 (UniProt O60674); assay: as above
# AncSZ = assay: as above
# MERTK = MERTK (UniProt Q12866); assay: as above
# Fyn = Fyn (UniProt P06241); assay: as above
# c-Abl (mouse) = assay: as above
# 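For SH2 binding enrichment of the phosphorylated peptide, bacterial display in this document: peptide library displayed on the E. coli surface as eCPX fusions, selected cells deep-sequenced, score is each peptide's frequency after selection divided by its frequency in the input.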
# 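For phosphorylation enrichment, bacterial display in this document: 11-residue human phosphosite peptides and single-mutation variants displayed on the E. coli surface, counted by deep sequencing, each peptide's frequency after selection divided by its frequency in the unselected input library; frequency after pTyr selection over input frequency; kinase dosed for 20-30% of maximal phosphorylation in three min.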
# Fes, sequence (P07332 whole entry, looked up): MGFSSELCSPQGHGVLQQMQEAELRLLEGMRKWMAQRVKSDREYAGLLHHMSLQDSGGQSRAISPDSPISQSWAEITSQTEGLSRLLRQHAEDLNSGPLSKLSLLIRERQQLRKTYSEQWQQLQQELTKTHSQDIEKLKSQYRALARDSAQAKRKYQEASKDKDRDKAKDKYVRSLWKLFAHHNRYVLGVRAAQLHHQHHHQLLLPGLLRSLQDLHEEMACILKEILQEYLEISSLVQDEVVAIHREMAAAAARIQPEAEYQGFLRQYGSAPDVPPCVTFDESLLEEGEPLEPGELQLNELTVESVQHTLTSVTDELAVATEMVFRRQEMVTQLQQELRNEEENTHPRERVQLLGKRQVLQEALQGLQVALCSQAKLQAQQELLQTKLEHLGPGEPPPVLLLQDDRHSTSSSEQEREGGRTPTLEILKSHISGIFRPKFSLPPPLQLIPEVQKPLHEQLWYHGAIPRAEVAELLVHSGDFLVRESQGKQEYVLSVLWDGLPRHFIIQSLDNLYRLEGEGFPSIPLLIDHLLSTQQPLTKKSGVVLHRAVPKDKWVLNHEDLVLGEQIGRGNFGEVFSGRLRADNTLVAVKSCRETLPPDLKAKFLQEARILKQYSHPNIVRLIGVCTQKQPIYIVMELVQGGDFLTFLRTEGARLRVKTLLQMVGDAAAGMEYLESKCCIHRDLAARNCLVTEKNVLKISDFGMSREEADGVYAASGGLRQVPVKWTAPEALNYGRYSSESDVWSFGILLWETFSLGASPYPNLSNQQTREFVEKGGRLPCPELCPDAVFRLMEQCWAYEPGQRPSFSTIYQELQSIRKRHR
# Jak2, sequence (O60674 whole entry, looked up): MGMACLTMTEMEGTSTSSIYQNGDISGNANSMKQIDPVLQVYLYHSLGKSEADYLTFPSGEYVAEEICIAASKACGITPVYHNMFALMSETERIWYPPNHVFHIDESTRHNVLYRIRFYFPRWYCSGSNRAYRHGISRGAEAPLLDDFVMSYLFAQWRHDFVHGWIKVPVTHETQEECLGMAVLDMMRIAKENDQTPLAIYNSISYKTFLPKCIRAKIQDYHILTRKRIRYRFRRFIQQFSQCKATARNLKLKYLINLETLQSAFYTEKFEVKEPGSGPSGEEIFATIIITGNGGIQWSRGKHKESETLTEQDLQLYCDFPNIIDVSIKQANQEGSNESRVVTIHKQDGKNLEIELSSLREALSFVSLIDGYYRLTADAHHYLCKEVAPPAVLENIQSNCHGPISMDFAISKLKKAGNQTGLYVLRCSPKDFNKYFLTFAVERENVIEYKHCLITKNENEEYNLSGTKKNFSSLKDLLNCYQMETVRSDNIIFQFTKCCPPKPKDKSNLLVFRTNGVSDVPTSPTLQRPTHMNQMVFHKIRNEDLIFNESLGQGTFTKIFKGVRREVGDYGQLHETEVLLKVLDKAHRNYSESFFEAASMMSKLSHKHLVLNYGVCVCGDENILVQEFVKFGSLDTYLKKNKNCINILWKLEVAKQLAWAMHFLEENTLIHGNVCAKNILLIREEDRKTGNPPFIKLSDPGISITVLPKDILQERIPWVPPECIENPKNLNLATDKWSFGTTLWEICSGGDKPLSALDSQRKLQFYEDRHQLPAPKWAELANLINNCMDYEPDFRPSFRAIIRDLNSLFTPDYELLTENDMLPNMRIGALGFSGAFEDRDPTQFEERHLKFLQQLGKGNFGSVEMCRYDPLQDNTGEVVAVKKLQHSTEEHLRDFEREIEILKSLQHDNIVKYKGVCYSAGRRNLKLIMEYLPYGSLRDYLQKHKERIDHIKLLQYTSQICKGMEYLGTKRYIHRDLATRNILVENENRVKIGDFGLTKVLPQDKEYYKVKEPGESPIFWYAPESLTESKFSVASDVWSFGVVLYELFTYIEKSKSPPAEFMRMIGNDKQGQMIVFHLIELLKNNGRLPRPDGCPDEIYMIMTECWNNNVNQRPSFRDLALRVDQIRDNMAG
# Hck, sequence (P08631 whole entry, looked up): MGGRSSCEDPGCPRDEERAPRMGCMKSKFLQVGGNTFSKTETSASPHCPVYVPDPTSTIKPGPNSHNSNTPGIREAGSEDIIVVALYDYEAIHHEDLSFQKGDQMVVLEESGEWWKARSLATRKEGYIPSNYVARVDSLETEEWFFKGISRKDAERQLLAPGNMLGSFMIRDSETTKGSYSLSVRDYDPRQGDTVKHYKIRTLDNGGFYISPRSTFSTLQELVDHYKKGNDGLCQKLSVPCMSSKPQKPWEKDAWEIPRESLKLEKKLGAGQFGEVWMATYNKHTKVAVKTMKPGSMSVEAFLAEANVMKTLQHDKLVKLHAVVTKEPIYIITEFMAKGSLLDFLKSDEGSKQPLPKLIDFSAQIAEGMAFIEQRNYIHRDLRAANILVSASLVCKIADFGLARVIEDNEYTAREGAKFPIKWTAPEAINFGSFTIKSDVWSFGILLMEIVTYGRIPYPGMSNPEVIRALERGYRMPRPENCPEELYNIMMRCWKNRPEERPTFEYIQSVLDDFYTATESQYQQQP
# MERTK, sequence (Q12866 whole entry, looked up): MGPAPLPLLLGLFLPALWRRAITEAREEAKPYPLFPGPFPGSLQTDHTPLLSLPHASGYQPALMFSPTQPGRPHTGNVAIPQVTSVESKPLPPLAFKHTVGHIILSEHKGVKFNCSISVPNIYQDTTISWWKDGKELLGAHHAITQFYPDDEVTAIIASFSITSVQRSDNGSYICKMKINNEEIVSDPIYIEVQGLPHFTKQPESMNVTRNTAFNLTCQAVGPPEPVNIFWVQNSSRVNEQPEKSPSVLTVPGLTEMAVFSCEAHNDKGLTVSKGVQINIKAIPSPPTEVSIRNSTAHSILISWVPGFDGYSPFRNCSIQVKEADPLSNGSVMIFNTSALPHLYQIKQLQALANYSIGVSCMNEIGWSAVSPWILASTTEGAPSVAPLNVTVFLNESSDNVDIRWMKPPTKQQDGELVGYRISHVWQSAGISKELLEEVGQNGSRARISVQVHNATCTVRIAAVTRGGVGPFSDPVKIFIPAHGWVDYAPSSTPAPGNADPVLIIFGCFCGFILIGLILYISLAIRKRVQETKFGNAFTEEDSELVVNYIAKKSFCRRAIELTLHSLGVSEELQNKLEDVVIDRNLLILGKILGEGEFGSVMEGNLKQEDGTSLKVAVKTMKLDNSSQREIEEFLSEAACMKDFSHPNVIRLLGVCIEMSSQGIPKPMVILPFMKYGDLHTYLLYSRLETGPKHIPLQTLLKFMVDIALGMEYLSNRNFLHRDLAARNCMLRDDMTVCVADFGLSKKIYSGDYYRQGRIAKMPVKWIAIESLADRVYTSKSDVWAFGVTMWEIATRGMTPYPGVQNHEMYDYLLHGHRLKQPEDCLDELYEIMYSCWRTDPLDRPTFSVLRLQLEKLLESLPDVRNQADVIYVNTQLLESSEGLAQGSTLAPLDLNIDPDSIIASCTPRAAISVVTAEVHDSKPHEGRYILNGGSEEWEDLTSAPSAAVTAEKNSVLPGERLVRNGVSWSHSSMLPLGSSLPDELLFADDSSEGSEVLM
# EPHB2, sequence (P29323 whole entry, looked up): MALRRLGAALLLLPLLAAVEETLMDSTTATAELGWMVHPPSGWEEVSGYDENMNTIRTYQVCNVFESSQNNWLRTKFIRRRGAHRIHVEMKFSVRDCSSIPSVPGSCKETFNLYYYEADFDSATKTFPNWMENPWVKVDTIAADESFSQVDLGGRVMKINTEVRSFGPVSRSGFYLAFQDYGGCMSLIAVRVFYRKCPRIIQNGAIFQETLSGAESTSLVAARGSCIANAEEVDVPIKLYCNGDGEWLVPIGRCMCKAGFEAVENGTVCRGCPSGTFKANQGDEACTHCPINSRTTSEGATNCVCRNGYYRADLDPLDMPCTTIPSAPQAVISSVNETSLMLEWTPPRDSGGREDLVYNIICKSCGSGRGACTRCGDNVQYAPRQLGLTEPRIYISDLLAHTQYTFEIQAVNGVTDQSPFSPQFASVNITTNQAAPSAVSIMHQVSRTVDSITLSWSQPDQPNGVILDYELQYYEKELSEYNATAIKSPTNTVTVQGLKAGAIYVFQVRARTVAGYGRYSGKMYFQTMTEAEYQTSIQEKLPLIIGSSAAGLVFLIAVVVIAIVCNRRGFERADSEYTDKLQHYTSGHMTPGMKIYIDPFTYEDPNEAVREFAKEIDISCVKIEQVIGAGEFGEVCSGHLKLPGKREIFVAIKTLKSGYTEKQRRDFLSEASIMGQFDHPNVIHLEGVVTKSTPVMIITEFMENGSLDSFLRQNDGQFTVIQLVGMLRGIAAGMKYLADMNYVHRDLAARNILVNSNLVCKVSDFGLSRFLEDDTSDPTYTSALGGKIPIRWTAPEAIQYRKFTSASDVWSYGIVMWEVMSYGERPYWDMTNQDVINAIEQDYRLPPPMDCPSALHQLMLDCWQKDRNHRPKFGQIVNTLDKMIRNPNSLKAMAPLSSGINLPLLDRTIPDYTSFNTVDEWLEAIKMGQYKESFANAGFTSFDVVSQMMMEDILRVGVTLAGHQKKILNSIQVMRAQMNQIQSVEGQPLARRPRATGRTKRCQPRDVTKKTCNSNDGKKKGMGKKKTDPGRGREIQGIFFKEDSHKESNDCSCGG
# Fyn, sequence (P06241 whole entry, looked up): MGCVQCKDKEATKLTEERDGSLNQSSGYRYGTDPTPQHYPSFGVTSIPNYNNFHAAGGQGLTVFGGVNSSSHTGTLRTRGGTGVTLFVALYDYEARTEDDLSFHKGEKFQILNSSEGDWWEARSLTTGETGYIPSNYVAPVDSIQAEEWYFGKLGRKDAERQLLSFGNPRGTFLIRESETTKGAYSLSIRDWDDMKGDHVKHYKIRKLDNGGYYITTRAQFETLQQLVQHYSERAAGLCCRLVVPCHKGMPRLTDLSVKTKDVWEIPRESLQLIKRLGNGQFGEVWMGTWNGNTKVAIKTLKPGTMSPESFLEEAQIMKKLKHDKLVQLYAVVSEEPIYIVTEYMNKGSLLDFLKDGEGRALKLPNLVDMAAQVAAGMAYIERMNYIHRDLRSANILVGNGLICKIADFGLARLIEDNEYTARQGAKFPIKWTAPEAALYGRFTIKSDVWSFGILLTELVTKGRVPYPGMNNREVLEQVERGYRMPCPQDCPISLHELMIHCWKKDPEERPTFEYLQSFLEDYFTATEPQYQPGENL
SH2 binding enrichment (c-Src SH2),SH2 binding enrichment (SHP2-C SH2),SH2 binding enrichment (Grb2 SH2),Sequence,phosphorylation enrichment (EPHB1),phosphorylation enrichment (FGFR1),phosphorylation enrichment (Fer (mouse)),phosphorylation enrichment (FGFR3),phosphorylation enrichment (Fes),phosphorylation enrichment (Hck),phosphorylation enrichment (EPHB2),phosphorylation enrichment (c-Src),phosphorylation enrichment (Jak2),phosphorylation enrichment (AncSZ),phosphorylation enrichment (MERTK),phosphorylation enrichment (Fyn),phosphorylation enrichment (c-Abl (mouse))
0.572,0.693,0.821,AGLEEYSAMRD [HRAS_Y64_Q61L],0.568,0.52,0.495,0.666,0.997,0.523,0.585,0.484,0.837,0.952,0.429,0.45,0.636
0.45,0.615,0.79,AGVDRYSLGTS [C5orf42_Y1451_P1446A],0.463,0.398,0.398,0.51,0.599,0.455,0.366,0.391,0.498,0.59,0.394,0.361,0.388
0.874,1.13,1.03,AHLLQYNHRVK [LGALS3_Y221],0.461,0.397,0.371,0.442,0.604,0.366,0.493,0.459,0.562,0.592,0.42,0.288,0.668
0.923,0.86,0.632,AIGFEYSEINI [SIGLEC12_Y588_YF],0.481,2.77,3.84,1.69,1.04,1.14,0.5,1.46,1.22,1.14,0.574,0.642,0.689
0.553,0.557,0.975,AKGMKYLASKK [MET_Y1194],0.244,0.341,0.379,0.311,0.536,0.394,0.324,0.406,0.489,0.482,0.335,0.354,0.445
0.78,0.763,0.969,AKGMKYVASKK [MET_Y1194_L1195V],0.301,0.415,0.322,0.356,0.548,0.425,0.276,0.381,0.5,0.451,0.349,0.339,0.451
0.501,0.739,0.815,AKIDGYITSYR,0.52,0.469,0.338,0.556,0.763,0.407,0.51,0.417,0.558,0.809,0.415,0.433,0.565
0.45,0.732,0.871,AKLDIYKRKVE [VWA3B_Y918_N916D],0.295,0.298,0.317,0.382,0.707,0.414,0.283,0.37,0.475,0.589,0.291,0.485,0.411
0.517,0.664,0.854,AKLNIYKRKVE [VWA3B_Y918],0.309,0.331,0.34,0.422,0.504,0.307,0.305,0.4,0.603,0.486,0.448,0.53,0.91
0.762,0.804,1.03,ALAAPYVLYPS [CEFIP_Y1332_G1337S],0.652,2.02,0.581,1.28,0.811,0.628,0.473,6.33,0.856,0.786,0.721,0.697,0.583
0.415,0.546,0.691,ALAHKYQGGGG [HBB_Y146_H147Q],0.204,0.476,0.283,0.476,0.58,0.375,0.436,0.491,0.527,0.824,0.588,0.451,0.565
0.625,0.845,0.872,ALKWGYTVKGI [OAT_Y158_R154L],0.447,0.426,0.445,0.72,1.24,0.341,0.547,0.31,1.01,1.13,0.304,0.519,0.659
0.633,0.969,0.803,ALLVFYAATIA [SLC20A2_Y187_P184L],0.648,0.445,0.501,0.672,1.13,0.513,0.565,0.455,1.04,0.934,0.429,0.44,0.871
0.806,1.17,1.16,AMIADYMFWLG [SPATA16_Y290],7.43,12.2,2.01,10.8,1.31,1.49,15.2,1.3,3.71,2.24,2.52,0.727,1.24
0.64,0.673,1.09,ANVIRYFPTQA [SLC25A4_Y81],0.42,0.524,0.547,0.492,0.648,0.558,0.502,0.674,0.61,0.78,0.546,0.585,0.541
0.368,0.46,0.739,ANVKWYRSGRE,0.401,0.46,0.402,0.886,0.841,0.412,0.425,0.512,0.585,0.875,0.474,0.43,0.587
1.84,0.799,1.54,APQYTYTQGGQ [FLNA_Y1763_A1764T],,,,,,,,,,,,,
0.437,0.783,0.862,LPEVSYVKAID [GLRA1_Y307_K304E],0.095,,,0.1,0.205,0.203,,0.126,0.44,0.207,0.07,0.28,0.132
